# The supplement of paper PMC7125110
# ± gives the standard error. For some assays here: Fewer inactive variants are shown than the library holds.
# B1: glmS ribozyme (parent)
# chain: AUAAAAGCGCCAGAACUACAGAAAUGUAGUUGACGAGGAGGAGGUUUAUCGAAUUUUCGGCGGAUGCCUCCAAA
# How the values were obtained:
# Details in all cases: with glucosamine-6-phosphate
# [1] = variants of: B1; assay: kcat; higher = faster cleavage; RNA array
# In short: (§1)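 The measurements used barcoded ribozyme variants on sequenced MiSeq chips, transcribed in situ by E. coli RNA polymerase and tracked at 37 °C with a hybridised Cy3 probe. Glucosamine-6-phosphate, 40 μM to 10 mM in HEPES/KCl/Mg(OAc)2 buffer, was flowed in while tiles were imaged over ~14 h. Baseline-normalised signals, also normalised to non-cleaving reference variants, gave per-tile medians that were fit to one- or two-exponential decays for kobs. kcat and KM resulted from weighted Michaelis–Menten fits across concentrations.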
# [2] = variants of: B1; assay: KM; higher = weaker cofactor use; RNA array
# In short: as §1
# [3] = variants of: B1; assay: self-cleavage kobs at 40 uM GlcN6P; higher = faster cleavage; RNA array
# In short: as §1
# [4] = variants of: B1; assay: self-cleavage kobs at 160 uM GlcN6P; higher = faster cleavage; RNA array
# In short: as §1
# [5] = variants of: B1; assay: self-cleavage kobs at 640 uM GlcN6P; higher = faster cleavage; RNA array
# In short: as §1
# [6] = variants of: B1; assay: self-cleavage kobs at 2500 uM GlcN6P; higher = faster cleavage; RNA array
# In short: as §1
# [7] = variants of: B1; assay: self-cleavage kobs at 10000 uM GlcN6P; higher = faster cleavage; RNA array
# In short: as §1
Variant,kcat [1] [s⁻¹],KM [2] [µM],self-cleavage kobs at 40 uM GlcN6P [3] [s⁻¹],self-cleavage kobs at 160 uM GlcN6P [4] [s⁻¹],self-cleavage kobs at 640 uM GlcN6P [5] [s⁻¹],self-cleavage kobs at 2500 uM GlcN6P [6] [s⁻¹],self-cleavage kobs at 10000 uM GlcN6P [7] [s⁻¹]
A15U A39U,0.00466 ± 0.00041,2280 ± 280,8.33e-05 ± 9.7e-06,0.000251 ± 5.5e-05,0.0011 ± 0.00013,0.00233 ± 0.00043,0.0038 ± 0.0004
U54C C61U,2.59e-05 ± 2.6e-06,,,,,,
G13A G32C,0.00056 ± 0.00021,,,,6.56e-05 ± 8.7e-06,0.000136 ± 1.8e-05,0.000388 ± 5.3e-05
A12U G51A,1.05e-05 ± 2.6e-06,,,,,,
G37U G51C,< 1e-05,,,,,,< 1e-05
U31A A42G U47A,0.00933 ± 0.0047,,0.000345 ± 9.2e-05,,0.00346 ± 0.001,,0.00844 ± 0.0039
G13A C16A,0.000316 ± 9.2e-06,,,,,4.78e-05 ± 7.4e-06,0.000132 ± 1.9e-05
A12G C58G,0.000117 ± 1.9e-05,,,,,7.99e-05 ± 1.2e-05,9.48e-05 ± 9.8e-06
G7U C10U G37A C67A,3.55e-05 ± 1.6e-05,,,,,,
U55C C68U,3.04e-05 ± 1.7e-06,,,,,,2.9e-05 ± 9.1e-06
A39G U45G,0.0109 ± 0.0044,,0.00047 ± 6.3e-05,0.00207 ± 0.00047,0.00416 ± 0.00099,0.00467 ± 0.0013,0.0173 ± 0.0023
A6U C70U,0.000253 ± 4.2e-05,1200 ± 440,,,8.14e-05 ± 9.8e-06,0.00021 ± 2.2e-05,0.000197 ± 2.7e-05
C16G U30A,0.000474 ± 6e-05,1780 ± 370,,3.9e-05 ± 1.2e-05,0.00012 ± 2.3e-05,0.000313 ± 6.1e-05,0.000372 ± 9.2e-05
G43A U54G,0.000123 ± 6e-06,2490 ± 310,,,,6.39e-05 ± 1.5e-05,9.76e-05 ± 1.9e-05
A12U G29A A52U,0.000494 ± 0.00016,,,,4.42e-05 ± 1.6e-05,0.00021 ± 6.6e-05,0.000309 ± 7.1e-05
A12U G37C,0.000148 ± 1.2e-05,4210 ± 790,,< 1e-05,,5.79e-05 ± 8.6e-06,0.000104 ± 9.8e-06
A6U G40U,2.6e-05 ± 7e-07,4450 ± 330,,,,,1.8e-05 ± 7.6e-06
G32U U49G,5.32e-05 ± 7.1e-06,,< 1e-05,,,4.54e-05 ± 1.2e-05,4.7e-05 ± 6.6e-06
C11G A14U C70A,3.61e-05 ± 1.3e-05,,,,,,

Variant,kcat [1] [s⁻¹],KM [2] [µM],self-cleavage kobs at 40 uM GlcN6P [3] [s⁻¹],self-cleavage kobs at 160 uM GlcN6P [4] [s⁻¹],self-cleavage kobs at 640 uM GlcN6P [5] [s⁻¹],self-cleavage kobs at 2500 uM GlcN6P [6] [s⁻¹],self-cleavage kobs at 10000 uM GlcN6P [7] [s⁻¹]
G41C U56G,0.000101 ± 5.7e-06,2280 ± 390,,,2.47e-05 ± 1e-05,4.78e-05 ± 1.5e-05,8.29e-05 ± 1.2e-05
U55C U56C,9.63e-05 ± 1.9e-05,,,,4.92e-05 ± 2e-05,5.28e-05 ± 1e-05,8.84e-05 ± 1.5e-05
A14C G32A,0.00779 ± 0.0028,,0.000121 ± 2.5e-05,0.000388 ± 0.00011,0.0014 ± 0.00034,0.00183 ± 0.00065,0.00702 ± 0.00097
C10G C50A C71U,1.87e-05 ± 3.4e-06,,,,,,< 1e-05
G29A C70G,6.2e-05 ± 1.1e-05,,,5.22e-05 ± 1.7e-05,5.96e-05 ± 1.1e-05,7.74e-05 ± 8.4e-06,4.28e-05 ± 8.6e-06
C11G G37U,1.74e-05 ± 6.6e-06,,< 1e-05,,,< 1e-05,< 1e-05
A12G C50G,1.17e-05 ± 2.1e-06,,,,,,
C58A U65A,1.58e-05 ± 1.9e-06,,,,,,
C16U C68G,8.6e-05 ± 6.4e-06,307 ± 140,,,5.77e-05 ± 1e-05,8.4e-05 ± 1e-05,7.86e-05 ± 9.3e-06
U31G U55G U56C,0.00133 ± 0.00026,4490 ± 1500,,7.22e-05 ± 2.4e-05,0.000162 ± 3.4e-05,0.000395 ± 9.8e-05,0.000948 ± 0.00012
G40C A52G,0.00018 ± 3.1e-05,2990 ± 1200,,,2.38e-05 ± 8.1e-06,0.000102 ± 1.5e-05,0.000133 ± 1.5e-05
C11U A15C G51U C70A,6.95e-05 ± 2.4e-05,,6.91e-05 ± 1.9e-05,,,0.000111 ± 3.3e-05,5.08e-05 ± 2e-05
G44C C71U,1.52e-05 ± 3.3e-06,,,,,,
U46C C58A,0.000527 ± 0.00012,,,,2.77e-05 ± 9.7e-06,7.47e-05 ± 1.3e-05,0.00022 ± 3.4e-05
U46C C58U,3.35e-05 ± 5.4e-07,1400 ± 110,< 1e-05,,,,2.93e-05 ± 9e-06
C16G G40A,0.000334 ± 0.00011,,,,0.000114 ± 2.6e-05,0.000473 ± 0.00011,0.00027 ± 5.7e-05
A39U A53U,0.0113 ± 0.0033,1260 ± 530,0.000461 ± 5e-05,0.000985 ± 0.00016,0.00368 ± 0.00054,0.00619 ± 0.001,0.0126 ± 0.0017
A15G A42C,1.26e-05 ± 4.1e-06,,,< 1e-05,,,
U46A U47A,0.00774 ± 0.0022,2510 ± 920,0.000207 ± 4.9e-05,0.000426 ± 6.1e-05,0.00159 ± 0.00033,0.00385 ± 0.00067,0.00631 ± 0.0017
